Data on two molecules can be found in US11926665B2, “Methods of treating cancer with anti-TIM-3 antibodies” (TESARO, INC., priority 2017, dated 2024).

One data set relates to PARP activity. The settings on record: various cell lines, DNA damage by hydrogen peroxide, cited from earlier work.
For data set [1], the system named is advanced or metastatic solid tumors. Briefly: Phase 1 dose escalation, best tumor response. It is filed as in vivo, human. An excerpt: (§1) This example describes a multicenter, open-label, first-in-human Phase 1 study evaluating a TIM-3 binding agent (an anti-TIM-3 antibody), in patients with tumors. Specifically the dosage effects in patients with advanced solid tumors treated with a particular TIM-3 binding agent. A TIM-3 binding agent (TSR-022) as described in the present study comprises a humanized monoclonal anti-TIM-3 antibody comprising a heavy chain whose amino acid sequence comprises SEQ ID NO: 3 and a light chain whose amino acid sequence comprises SEQ ID NO:4 are evaluated. This anti-TIM-3 antibody utilizes a human IGHG4*01 heavy chain gene, and a human IGKC*01 kappa light chain gene, as scaffolds. Further, there is a single Ser to Pro point mutation in the hinge region of the IgG4 heavy chain at the canonical S228 position.
Patients were included with histologically or cytologically proven advanced (unresectable) or metastatic solid tumor and who had disease progression after treatment with available therapies that are known to confer clinical benefit or who are intolerant to other known treatment(s).
The study comprises several parts: dose escalation and cohort expansion. Part 1a of the study (dose escalation) is intended, inter alia, to evaluate the safety, PK, and PDy profile, tolerability and anti-cancer effect of the anti-TIM-3 antibody. A modified 3+3 design was used for dose escalation at 0.03 mg/kg, 0.1 mg/kg, 0.3 mg/kg, 1.0 mg/kg, 3 mg/kg, and 10 mg/kg and higher every 2 weeks (Q2W) with the dose of the TIM-3 antibody not to exceed 20 mg/kg. […]
The best response observed was also evaluated in efficacy evaluable patients (e.g., patients who received at least two doses and either had at least one post-baseline assessment or had discontinued treatment due to clinical progression prior to post-baseline tumor assessment. Stable disease (5/25 patients) and partial response (1/25 patients at 10 mg/kg) were observed as the best response in patients with rectal, thyroid, neuroendocrine, or head and neck cancer, or with soft tissue sarcoma.

Data set [2] in a line: Phase 1 dose escalation, safety and tolerability. Type of data set: in vivo.
Method: The study comprises several parts: dose escalation and cohort expansion. Part 1a of the study (dose escalation) is intended, inter alia, to evaluate the safety, PK, and PDy profile, tolerability and anti-cancer effect of the anti-TIM-3 antibody. […] Part 1a could also comprise the testing of a “flat” dose, or a specific fixed number of milligrams of antibody (as opposed to the weight based dosing mg/kg). Flat doses could range from 200 mg to 1500 mg of anti-TIM-3 antibody. Part 1b of the study (combination with PD1 dose escalation cohorts) is intended, inter alia, to evaluate the safety, PK, and PDy profile, tolerability and anti-cancer effect of the anti-TIM-3 antibody in combination with an anti-PD-1 antibody wherein the anti-TIM-3 antibody is administered as a dose escalation. […] The anti-PD-1 antibody can be dosed at an approved dose and schedule for a marketed agent and on a weight basis at a dose of 3 or 10 mg/kg Q2W or Q3W or on a flat dose basis of 500 mg antibody Q2W or Q3W by using a modified 3+3 design.
Primary endpoints include determining the safety and tolerability of TSR-022 by Common Terminology Criteria for Adverse Events (CTCAE v4) and to determine the recommended phase 2 dose (RP2D) and schedule for monotherapy and combination with an anti-PD-1 antibody. […]
A further data set concerns the target T1, TIM-3 (Homo sapiens, UniProt Q8TDQ0).
T1 construct: endogenous in cells; host or cells: circulating CD14+ monocytes in patients' whole blood
Put plainly: TIM-3 receptor occupancy on circulating CD14+ monocytes by flow cytometry. Type of data set: in vivo. The method, then: TIM-3 receptor occupancy (RO) by TSR-022 on circulating CD14^+ monocytes was measured by flow cytometry. Briefly, whole blood samples from patients treated with TSR-022 were stained with anti-CD14, a non-competing anti-TIM-3 antibody (indicating total TIM-3) and a competing anti-TIM-3 antibody (indicating unbound or free TIM-3). TIM-3 occupancy by infused TSR-022 was estimated as the ratio of free TIM-3 on CD14+ cells to the total TIM-3 on CD14+ cells. A decrease in the ratio indicates an increase in TSR-022 bound TIM-3 receptor. To measure binding in the RO assay, whole blood was collected from patients at baseline (Day 1 predose), 48 hours following the first dose (Day 3) and prior to the second dose (Day 15 predose) for the Q2W schedule. […] Samples for occupancy measurement on the Q3W schedule were collected as follows: Day 1 predose, Day 5, Day 15 and Day 22. Ex vivo TSR-022 saturated healthy donor samples (“sat”) as well as controls lacking detection antibodies (“Bkgd”) were included as controls.
FIGS. 7A-7C respectively show receptor occupancy studies of the anti-TIM-3 antibody (TSR-022) administered at doses of 1 mg/kg (FIG. 7A), 3 mg/kg (FIG. 7B), and 10 mg/kg (FIG. 7C) every two weeks (Q2W). All samples were pre-dose, with occupancy measured after a single dose on day 1. The occupancy ratio (free TIM-3:total TIM-3) is determined at various time points (for example, timepoints can include day 1, day 3, day 15, day 22, and day 29). The receptor occupancy is maximal on day 3 across doses of TSR-022.

Data set [3] can be described thus: Phase 1 study, serum pharmacokinetics after first dose. Type of data set: in vivo. The settings on record: patients, first dose 0.03-10 mg/kg, monitored for two weeks, FIG. 6A.
Text: as §1
The study comprises several parts: dose escalation and cohort expansion. Part 1a of the study (dose escalation) is intended, inter alia, to evaluate the safety, PK, and PDy profile, tolerability and anti-cancer effect of the anti-TIM-3 antibody. […]
After patients received the first dose of TSR-022 at various levels (0.03-10 mg/kg), the TSR-022 concentration in serum was monitored for two weeks and the pharmacokinetic (PK) behaviors were characterized.

With `NC(=O)c1cccc2cn(-c3ccc([C@@H]4CCCNC4)cc3)nc12` [Niraparib, (3S)-3-[4-{7-(aminocarbonyl)-2H-indazol-2-yl}phenyl]piperidine], the half-inhibitory concentration (IC50) with PARP activity (read-out: IC50, PARP activity in cells) was about 4 nM. Also, the IC90 in the data set on PARP activity (read-out: inhibitory concentration at 90% of control (IC90), PARP activity in cells) was about 50 nM.

As for “TSR-022: humanized monoclonal anti-TIM-3 IgG4 antibody, heavy chain SEQ ID NO: 3, light chain SEQ ID NO: 4, S228 Ser to Pro hinge mutation”, in data set [1] (efficacy evaluable patients, monotherapy Part 1a, 0.03-10 mg/kg Q2W), the “stable disease as best response” value is recorded as 5/25. Further, the “partial response as best response” value in data set [1] (efficacy evaluable patients, monotherapy, at 10 mg/kg) is 1/25. Besides, the tumor reduction in data set [1] (one patient with metastatic leiomyosarcoma, 3 doses at 10 mg/kg, pending confirmatory imaging) is on record as 32%. Also, the MTD entry in data set [2] (dose escalation continued to 1.0 mg/kg Q2W) is given as “a MTD has not yet been identified”. In addition, the tolerability entry in data set [2] (monotherapy, patients) is “well-tolerated across multiple dose levels”. In the data set with TIM-3 (3 mg/kg, single dose on day 1, FIG. 7B), the “day through which maximal occupancy is maintained” value was at least 29 days. Moreover, in the data set with TIM-3 (10 mg/kg, through the days of available data, versus 3 mg/kg, FIG. 7C), the “maintenance of maximal occupancy” value is reported as “comparable results are obtained”. Further, the “receptor occupancy compared between regimens” value with TIM-3 (100 mg Q3W versus 3 mg/kg Q2W) was “comparable to 3 mg/kg Q2W”. In addition, the “target coverage in the periphery (receptor occupancy)” value in the data set with TIM-3 (100 mg flat dose Q3W, single dose on day 1, FIG. 10) is listed as “achieved at 100 mg for the duration of the dosing interval”. Besides, in the data set with TIM-3 (300 mg flat dose TSR-022 in combination with 500 mg flat dose TSR-042, FIG. 11), the “receptor occupancy (RO)” value is “high RO can be maintained over the measured time period”. For the same molecule, the “mean occupancy ratio (free TIM-3:total TIM-3)” value in the data set with TIM-3 (1, 3, 10 mg/kg and flat doses of 100, 300, 1200 mg, over a range of days, FIG. 12) was “high occupancy ratios”. The “receptor occupancy on peripheral monocytes versus exposure” value in the data set with TIM-3 (patients, whole blood, FIG. 6B) was “correlate with TSR-022 exposure”. Further, the “day on which receptor occupancy is maximal” value with TIM-3 (single dose on day 1, across doses 1, 3, 10 mg/kg, FIGS. 7A-7C) was 3 days. The “PK behavior, serum concentration versus time” value in data set [3] is “linear PK behavior”.
